Test results as given in the Human Domainome abundance scans (Beltran et al. 2025).
± gives the uncertainty stated by the source.

B1: Glucocorticoid receptor, residues 419 to 494; numbered along this chain, P04150 (parent)
chain: KLCLVCSDEASGCHYGVLTCGSCKVFFKRAVEGQHNYLCAGRNDCIIDKIRRKNCPACRYRKCLQAGMNLEARKTK

Variants of: B1
Assay: abundance fitness (aPCA) (normalised: wild type 0, dead -1); higher = more abundant; growth selection in yeast, the domain comes from the species named
Details: Homo sapiens

Variant | abundance fitness
K28S | -0.068 ± 0.044
K28C | -0.121 ± 0.069
K28G | -0.051 ± 0.031
K28M | -0.002 ± 0.049
K28Y | 0.001 ± 0.069
K28L | -0.022 ± 0.036
K28N | -0.063 ± 0.058
K28Q | 0.014 ± 0.056
K28E | 0.007 ± 0.047
K28A | -0.056 ± 0.036
K28F | -0.086 ± 0.086
K28D | -0.061 ± 0.069
K28I | -0.064 ± 0.078
K28P | -0.243 ± 0.047
K28H | -0.001 ± 0.065
K28R | -0.034 ± 0.033
K28T | 0.001 ± 0.042
C20Q | -1.04 ± 0.2
C20F | -0.717 ± 0.32
C20I | -1.11 ± 0.49
C20P | -0.594 ± 0.12

Variant | abundance fitness
C20N | -0.75 ± 0.26
C20G | -0.805 ± 0.12
C20W | -0.78 ± 0.11
C20V | -1.11 ± 0.2
C20S | -1.4 ± 0.35
C20K | -0.948 ± 0.17
C20Y | -0.782 ± 0.23
C20M | -0.651 ± 0.13
C20A | -0.837 ± 0.12
C20T | -0.87 ± 0.17
C20L | -1.14 ± 0.17
C20H | -0.918 ± 0.31
K24I | -0.245 ± 0.072
K24T | -0.096 ± 0.059
K24D | -0.006 ± 0.087
K24V | 0.015 ± 0.059
K24S | 0.062 ± 0.055
K24W | -0.037 ± 0.089
K24E | 0.011 ± 0.079
K24A | -0.019 ± 0.05
K24Y | 0.017 ± 0.06

Variant | abundance fitness
K24R | -0.105 ± 0.054
K24Q | 0.044 ± 0.06
K24F | -0.092 ± 0.066
K24N | -0.028 ± 0.061
K24C | 0.011 ± 0.065
K24H | -0.026 ± 0.069
K24M | -0.087 ± 0.077
K24G | -0.018 ± 0.051
K24L | -0.134 ± 0.045
K24P | -0.096 ± 0.072
G21L | -0.037 ± 0.037
G21I | -0.088 ± 0.099
G21K | 0.008 ± 0.045
G21P | -0.008 ± 0.056
G21T | -0.031 ± 0.046
G21E | 0.076 ± 0.042
G21M | -0.032 ± 0.05
G21D | -0.009 ± 0.062
G21Q | 0.13 ± 0.055
G21H | -0.122 ± 0.072
G21Y | -0.031 ± 0.077

Variant | abundance fitness
G21S | -0.023 ± 0.04
G21C | -0.064 ± 0.06
G21R | -0.086 ± 0.033
G21N | -0.15 ± 0.09
R29A | -0.024 ± 0.042
V25I | 0.021 ± 0.075
V25N | -0.081 ± 0.09
V25C | 0.043 ± 0.063
V25T | -0.019 ± 0.062
V25G | 0.008 ± 0.054
V25S | -0.017 ± 0.05
V25Q | 0.015 ± 0.087
V25F | -0.005 ± 0.064
V25P | -0.614 ± 0.13
V25D | 0.017 ± 0.086
V25H | 0.06 ± 0.069
V25W | -0.039 ± 0.062
V25Y | -0.129 ± 0.098
V25M | -0.094 ± 0.067
V25R | 0.085 ± 0.044
